The record followed here is US8110387B2, “Polypeptide having NADH dependent HMF reductase activity” (C5 Ligno Technologies Lund AB, priority 2007, dated 2012).

Type in all cases: biochemical, Saccharomyces cerevisiae
Data set [1] can be described thus: In vitro NADH-dependent furan reductase activity of ADH1 mutants in cell extracts, furfural as substrate. Further details: key: —: no detectable activity; detectable activity (ranging from moderate (+) to very high (+++)); detectable activity (ranging from moderate (+) to very high (+++)); detectable activity (ranging from moderate (+) to very high (+++)). The following applies: 10 mM furfural, 200 μM NADH, cell extract of CEN.PK 113-5D transformant, pH 6.7, 30° C. The procedure: (§1) Plasmid carrying individual or combined mutations within the ADH1 gene were introduced in strain CEN.PK 113-5D by transformation according to the lithium acetate method (Gietz et al., 1992, Improved method for high efficiency transformation of intact yeast cells. Nucleic Acids Research 20:1425). Selection was performed on SD plates without uracil. The resulting strains were grown aerobically at 30° C. in 25 mL SD medium without uracil (in 250 mL baffled flask). Cell extracts were prepared by harvesting the cells at OD620 7.5-8.5, re-suspending the cells in Y-PER solution (Pierce, Rockford, Ill., USA), 1 mL/0.6gr cells, shaking at room temperature for 50 min. The supernatant was collected after centrifugation for 20 min at 15000 g. In vitro NADH-dependent furan reductase activity was measured by following the oxidation of NADH at 340 nm in a Hitachi U-2000 spectrophotometer (Hitachi, Tokyo, Japan). The assay consisted of 10 mM furaldehyde (HMF or furfural), 200 μM NADH and cell extract in 100 mM phosphate buffer (pH 6.7) at 30° C.

Data set [2] can be described thus: In vitro NADH-dependent furan reductase activity of ADH1 mutants in cell extracts, HMF as substrate. Further details: key: —: no detectable activity; detectable activity (ranging from moderate (+) to very high (+++)); detectable activity (ranging from moderate (+) to very high (+++)); detectable activity (ranging from moderate (+) to very high (+++)). The following applies: 10 mM HMF, 200 μM NADH, cell extract of CEN.PK 113-5D transformant, pH 6.7, 30° C. The procedure:
as §1

The nature of data set [3]: Enzyme kinetics of Adh1 variants, NADH-dependent reduction of acetaldehyde. The method, then: (§2) Cells were grown aerobically at 30° C. in 25 mL SD medium without uracil (in 250 mL baffled flask). Cell extracts were prepared by harvesting the cells at OD620 7.5-8.5, re-suspending the cells in Y-PER solution (Pierce, Rockford, Ill., USA), 1 mL/0.6 gr cells, shaking at room temperature for 50 min. The supernatant was collected after centrifugation for 20 min at 15000 g.
(§3) In vitro NADH-dependent furan reductase activity was measured by following the oxidation of NADH at 340 nm in a Hitachi U-2000 spectrophotometer (Hitachi, Tokyo, Japan). NADH-dependent aldehyde reduction was determined (Wahlbom and Hahn-Hägerdal, 2002) with 200 μM NADH. Reduction kinetics were determined for acetaldehyde (range […]-100 mM), furfural (100 μM-20 mM) and HMF (500 μM-20 mM). For native Adh1 furfural was used up to 40 mM.
(§4) Modeling was performed according to the Michaelis-Menten equation with the addition of a substrate inhibition constant: V=(Vmax·[S])/(Km+[S]+[S]2/KI), V—velocity, Vmax—maximal velocity, Km—affinity constant, Ki—substrate inhibition constant, and [S]—substrate concentration. Parameter value estimation was according to the least square method, using the solver function in Microsoft® Excel 2002. HMF activity parameters of strain BY474-ADH1-S117L were estimated without the substrate inhibition constant due to a clear discrepancy of the substrate inhibition model with actual data.

A short description of data set [4]: Enzyme kinetics of Adh1 variants, NADH-dependent reduction of furfural. The procedure:
as §2, §3, §4

Setting [5] is: 200 μM NADH, cell extract of BY4741.

B1: S110P: native Adh1 with the single substitution S110P (protein, listed as Saccharomyces cerevisiae)
chain: MSIPETQKGVIFYESHGKLEYKDIPVPKPKANELLINVKYSGVCHTDLHAWHGDWPLPTKLPLAGGHEGAGVVVGMGENVKGWKIGDYAGIKWLNGSCMACEYCELGNEPNCPHADSSGYTHDGSFQQYATADAVQAAHIPQGTDLAEVAPVLCAGITVYKALKSANLMAGHWVAISGAAGGLGSLAVQYAKAMGYRVLGIDGGEGKEELFRSIGGEVFIDFTKEKDIVGAVLKATDGGAHGVINVSVSEAAIEASTRYVRANGTTVLVGMPAGAKCCSDVFNQVVKSISIVGSYVGNRADTREALDFFARGLVKSPIKVVGLSTLPEIYEKMEKGQIVGRYVVDTSK
For the molecule B1, the “NADH-dependent Activity Furfural Reductase” value in data set [1] was “++”.

B2: Y295C: native Adh1 with the single substitution Y295C (protein, listed as Saccharomyces cerevisiae)
chain: MSIPETQKGVIFYESHGKLEYKDIPVPKPKANELLINVKYSGVCHTDLHAWHGDWPLPTKLPLAGGHEGAGVVVGMGENVKGWKIGDYAGIKWLNGSCMACEYCELGNESNCPHADSSGYTHDGSFQQYATADAVQAAHIPQGTDLAEVAPVLCAGITVYKALKSANLMAGHWVAISGAAGGLGSLAVQYAKAMGYRVLGIDGGEGKEELFRSIGGEVFIDFTKEKDIVGAVLKATDGGAHGVINVSVSEAAIEASTRYVRANGTTVLVGMPAGAKCCSDVFNQVVKSISIVGSCVGNRADTREALDFFARGLVKSPIKVVGLSTLPEIYEKMEKGQIVGRYVVDTSK
For the molecule B2, the “NADH-dependent Activity Furfural Reductase” value in data set [1] is “+++”. The “NADH-dependent Activity HMF reductase” value in data set [2] was “+”.

B3: V59T-Q148E-I152V-L117S-Y295C: mutated Adh1 from TMB3000 with reverse mutation at position 110 (protein, UniProt P00330 2-348, looked up, variant V59T Q148E I152V L117S Y295C)
Alcohol dehydrogenase 1: SIPETQKGVIFYESHGKLEYKDIPVPKPKANELLINVKYSGVCHTDLHAWHGDWPLPTKLPLVGGHEGAGVVVGMGENVKGWKIGDYAGIKWLNGSCMACEYCELGNESNCPHADSSGYTHDGSFQQYATADAVQAAHIPQGTDLAEVAPVLCAGITVYKALKSANLMAGHWVAISGAAGGLGSLAVQYAKAMGYRVLGIDGGEGKEELFRSIGGEVFIDFTKEKDIVGAVLKATDGGAHGVINVSVSEAAIEASTRYVRANGTTVLVGMPAGAKCCSDVFNQVVKSISIVGSCVGNRADTREALDFFARGLVKSPIKVVGLSTLPEIYEKMEKGQIVGRYVVDTSK
For B3, the “NADH-dependent Activity Furfural Reductase” value in data set [1] is given as “+”. In addition, the “NADH-dependent Activity HMF reductase” value in data set [2] is given as “+”.

B4: BY4741-control: native S. cerevisiae Adh1 (V59, S110, L117, Q148, I152, Y295) overexpressed in ΔAdh1 strain BY4741 (protein, UniProt P00330 2-348, looked up)
Alcohol dehydrogenase 1: SIPETQKGVIFYESHGKLEYKDIPVPKPKANELLINVKYSGVCHTDLHAWHGDWPLPVKLPLVGGHEGAGVVVGMGENVKGWKIGDYAGIKWLNGSCMACEYCELGNESNCPHADLSGYTHDGSFQQYATADAVQAAHIPQGTDLAQVAPILCAGITVYKALKSANLMAGHWVAISGAAGGLGSLAVQYAKAMGYRVLGIDGGEGKEELFRSIGGEVFIDFTKEKDIVGAVLKATDGGAHGVINVSVSEAAIEASTRYVRANGTTVLVGMPAGAKCCSDVFNQVVKSISIVGSYVGNRADTREALDFFARGLVKSPIKVVGLSTLPEIYEKMEKGQIVGRYVVDTSK
As to B4, the entries for the “[S]Vmax - substrate concentration at observed Vmax” value in data set [3] and in data set [4] were 1 mM and 30 mM, respectively. In addition, the results for the “Ki (substrate inhibition constant)” value in data set [3] (setting [5]) and in data set [4] (setting [5]) were 12.5326 mM and 1363 mM, respectively. The figures for the “obsVmax (observed Vmax)” value in data set [3] (substrate acetaldehyde) and in data set [4] (substrate furfural) were 35300 mU/mg and 4345 mU/mg, respectively. The Km worked out at 0.217 mM in data set [3] (substrate acetaldehyde, 200 μM NADH, cell extract of BY4741) and 18.8 mM in data set [4] (substrate furfural, 200 μM NADH, cell extract of BY4741). Besides, the Vmax in data set [3] (substrate acetaldehyde, 200 μM NADH, cell extract of BY4741, model with substrate inhibition) is 45070 (mU)/mg; in data set [4] (substrate furfural, 200 μM NADH, cell extract of BY4741, model with substrate inhibition) it was 6530 (mU)/mg.

B5: V59T-Q148E-I152V-S110P-L117S: mutated Adh1 from TMB3000 with reverse mutation at position 295 (protein, UniProt P00330 2-348, looked up, variant V59T Q148E I152V S110P L117S)
Alcohol dehydrogenase 1: SIPETQKGVIFYESHGKLEYKDIPVPKPKANELLINVKYSGVCHTDLHAWHGDWPLPTKLPLVGGHEGAGVVVGMGENVKGWKIGDYAGIKWLNGSCMACEYCELGNEPNCPHADSSGYTHDGSFQQYATADAVQAAHIPQGTDLAEVAPVLCAGITVYKALKSANLMAGHWVAISGAAGGLGSLAVQYAKAMGYRVLGIDGGEGKEELFRSIGGEVFIDFTKEKDIVGAVLKATDGGAHGVINVSVSEAAIEASTRYVRANGTTVLVGMPAGAKCCSDVFNQVVKSISIVGSYVGNRADTREALDFFARGLVKSPIKVVGLSTLPEIYEKMEKGQIVGRYVVDTSK
As to B5, in data set [1], the “NADH-dependent Activity Furfural Reductase” value was “+”.
